Target: Leminorella grimontii GatC (Leminorella grimontii)
Experiment: crystal structure

- stoichiometry N: 2
Substance: Leminorella grimontii GatC (natural protein)
